Reference: the supplement of paper PMC9170038

System: MS2 coat protein
Experiment: apparent KD of MS2 coat protein; higher = weaker reporter binding
Conditions: Eterna round: R107
Outline: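 Designed RNA switches were made by on-chip transcription from Illumina sequencing clusters and then titrated with SNAP-549-labelled MS2 coat protein. Twofold steps ran from 0.7 or 1.5 nM to 3 µM, each lasting 0.8–1.5 h early and 10–20 min late, in 100 mM Tris-HCl pH 7.5, 80 mM KCl, 4 mM MgCl2, without or with constant ligand. Apparent KD is the per-design median of normalised cluster binding-curve fits.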

[1] = input ligand: theophylline 20 uM
[2] = input ligand: theophylline 2 mM
[3] = input ligand: tryptophan 2.4 mM

Row | Sequence | apparent KD of MS2 coat protein (input ligand: arginine 13.2 mM) | apparent KD of MS2 coat protein [1] | apparent KD of MS2 coat protein [2] | apparent KD of MS2 coat protein [3] | apparent KD of MS2 coat protein (input ligand: none)
1 | ACAUGAGGAUCACCCAUGUACAUCACCCGACGAGGACCGGUACGGCCGCCACUCGGGUAUAUAUAUACAUCGGGUGAUUUUACGU [#22 Tryptophan A Same State] | 27.4 nM | 57.4 nM | 64.1 nM | – | –
2 | ACACAUGAGGAUCACCCAUGUCCAAUAGAUACCAGUGAUACGGUGCACCCUUGGCAGCUGUUACUGAGUGAUGGUUCCCUCGGAA [Same State Theophylline A GF3] | 48.1 nM | 81.9 nM | – | 58.7 nM | –
3 | CAAUUUCGAAUAGAUACCAGCUGUCAUAAACACAUGAGGAUCACCCAUGUGCUUCUCGUCAGCCCUUGGCAGCUAUAACUAGAGC [theeternabot_sameState_MS2_Theo_B_40] | 15.4 nM | 16.5 nM | – | 16.1 nM | –
4 | ACAAGAGGUGGAAGGAGCGGGAGACAUGAGGAUCACCCAUGUGAAGUUUCGAGAGGAUCAUCCCAGGUAGGUCGCCAUGUCGAAA [ojjomullin] | 199 nM | 84.1 nM | 228 nM | 49.7 nM | 41.7 nM
5 | UGAUCCUGCAGGGAUACCAGCGCCGCUUGAUAACUGUGCACAUGAGGAUCACCCAUGUAGCGCCCUUGGCAGCCCAGCUAGAGGG [Same State Theophylline B GF23] | 21.8 nM | 33.7 nM | – | 28.3 nM | –
6 | UCGCAUUGCUCAGAUACCAGACAUGAGGAUCACCCAUGUACCAAGGUAACCGAAAGGCAUGUCCCUUGGCAGCUGAGCAAUGCGU [MAT - Exclusion Theophlline B - Mod of Eli - D14] | 12.4 nM | 21.1 nM | – | 13.1 nM | –
7 | ACAAGAGGGAUGGAUACCAGCGACAUGAGGAUCACCCAUGUAUGAGGAUCAGCCAUGUUAUGCCCUUGGCAGCCACGAACAUCAG [SSAMULLIN] | 27.5 nM | 30.8 nM | 125 nM | 18.2 nM | 21.2 nM
8 | CUCAUCCACGCGGCCGCCACUAUAUUGUGGUGCGAAUGUGUCGUAAUACAUGAGGAUCACCCAUGUAGGACCGGGCGUGGAUGAG [#09 Exclusion Tryptophan B] | 10.3 nM | 14.4 nM | 13.5 nM | – | –
9 | CCUAUAUAGUCGGCCGCCACUGACUACAUGAGGAUCACCCAUGUAACACGAACAUGGUCCUGGAUCAGGACCGGGACUAUAUAGG [Tryp B Ex t5] | 16.5 nM | 24.2 nM | 22.2 nM | 122 nM | 20.7 nM
10 | AAAUAAAUACAUGAGGAUCACCCAUGUGAAGGAGCGCCCGUUAGGGCAGGUAGGUCGCACAUGAAAGGGAAGCGAAAGAAAUAAU [ArgEX 15 #OpenEnded] | 26.8 nM | 24.5 nM | 16.5 nM | 20.3 nM | 20.2 nM
11 | CGAUUUAAGACGGCCGCCACUAUUAAGUAACAAAAUAAACAUGAGGAUCACCCAUGUACAUGGGAUAGGACCGGGUCCAAUAUCG [A2] | 34.8 nM | 79.7 nM | 84.4 nM | – | –
12 | GCCCUUGGCAGCGAUACCAGCCAAAAUUAAAAUAAACCUCUACAUGAGGAUCACCCAUGUGGCCCUUGGCAGCGAUACCAGCAAA [#ReversedDoubbleAptamer 1] | 33.7 nM | 49.7 nM | – | 43.5 nM | –
13 | AGUACACGAACGGAUACCAGCCGGACAUGAGGAUCACCCAUGUCCUACCUCUGUUCGGUUGGCCCUUGGCAGCCGUUCGUGUACA [Omei Theo B SS A v8] | 122 nM | 590 nM | – | 208 nM | –
14 | ACAAUAUUGAGUUUGUCUCAAGUUUCAGAAGGAGCGUGAGGAAUCACAGGUAGGUCGCUGAUAACAUGAGGAUCACCCAUGUAUU [JR_SSArginiA_Sub005] | 26.1 nM | 43.1 nM | 45.1 nM | 35 nM | 35.7 nM
15 | ACGUCUCGUUUACUCGUGGGUUAGCUCGAUACCAGUAUUCAAACUUACCCUUGGCAGCGACAUGAGGAUCACCCAUGUGCGAAGA [XTheo A #23] | 17.3 nM | 20.5 nM | – | 17.5 nM | –
16 | GCUGUAAGUGCAGAUACCAGCGUGUUAUAUUUCUAAUGACAUGAGGAUCACCCAUGUAAAUGCCCUUGGCAGCUGCACUUACAGC [SSTHB #7] | 13.2 nM | 16.7 nM | – | 16.2 nM | –
17 | CUGUGUCCUUCGGCCGCCACUACAUGAGGAUCACCCAUGUCGUUACGGCUCCCAAUGACGCUUUGUAGGACCGGGAAGGAGUAUG [Tienancebe] | 9.27 nM | 15.9 nM | 10.9 nM | – | –
18 | GAUAUACGUGCGGCCGCCACUGAGUGGCGGGCGUGUCGAGUUACAUGAGGAUCACCCAUGUCACUCAGGACCGGGCACGGAAUUU [Soveri] | 7.64 nM | 14.1 nM | 11 nM | – | –
19 | GGCACAUGUGGAAGGAGCGUCGUACGAGCUACAUGAGGAUCACCCAUGUCGGUUAGUGUCCGACAGGUAGGUCGCCACAUUUAAC [Isiser] | 114 nM | 235 nM | 551 nM | 195 nM | 374 nM
20 | CCUCGGGACCGAAGGAGCGAGAUAACAACAUUGGGUCUCAACACAUGAGGAUCACCCAUGUCUCAGGUAGGUCGCGGUACCAUGG [Exclusion Arginine B GF22] | 140 nM | 275 nM | 387 nM | 182 nM | 385 nM
21 | AUGCCUAGUGGAAGGAGCGAGGGUCUUCUCAACAUGAGGAUCACCCAUGUUCUUUUACACCCUCAGGUAGGUCGCCAUUGGGACA [Biraanve] | 25.1 nM | 85.2 nM | 44.6 nM | 61.2 nM | 55 nM
22 | AGAUGAGUCACGGCCGCCACUCUUAUCAGGAUCACCCAUGGUUAACAUGAGGAUCACCCAUGUCUGAGGACCGGGUGAUGAGCAU [XTryp B #2] | 18.3 nM | 31.4 nM | 25.3 nM | – | –
23 | GGUUUAUAUAUAUAUAUAUAGAUUACUGAAGGAGCGGGAAAUAACCCAGGUAGGUCGCAGAGAUCCACAUGAGGAUCACCCAUGU [!0.E] | 37.1 nM | 55.3 nM | 54.3 nM | 36.8 nM | 40.2 nM
24 | AACAUGAGGAUCACCCAUGUUCUCGUGUACCGAGGACCGGUACGGCCGCCACUCGGUUCUCGCGAGGAUGGUCAAAGACUAUCCA [Omei Trp A SS B v5] | 22.6 nM | 25.1 nM | 24.7 nM | – | –
25 | AAACAUGAGGAUCACCCAUGUAAAGUUGAAGGAGCGACCAGAGGGUCAGGUAGGUCGCAACACAUGAGGAUCACCCAUGUAUCGA [DOUBLE!!! :-D #5] | 41.3 nM | 88.5 nM | 91.6 nM | 72.7 nM | 96.5 nM
26 | AGCGACAUGCAUGAUACCAGCUACAUGAGGAUCACCCAUGUACGUCAGUAAUGACUGUGUAGCCCUUGGCAGCAUAGAGCAUGUA [Exclusion - Theophylline B (Freestyle 14)] | 17.7 nM | 28 nM | – | 18.4 nM | –
27 | AGACAUGAGGAUCACCCAUGUAGUAUGGAUACCAGAUCCAGAUUUAUCCCUUGGCAGCUGUGGUACAGUGAUGGAUUGCUCCUAG [Exclusion - Theophylline A (Freestyle 9)] | 30.4 nM | 52 nM | – | 32.7 nM | –
28 | UACCCAUGAGUUGGAAAAGCUCAUGGGUAUCGAGGACCGGUACGGCCGCCACUCGGCUGUACAUGAGGAUCACCCAUGUCAGGGU [#1 Same State - Tryptophan A Attempt #24 (HarryS)] | 29.9 nM | 367 nM | 721 nM | – | –
29 | ACGUAAUGCAGAAGGAGCGUCAUUCUCUUACAUGAGGAUCACCCAUGUUACAUGGUUUUAUGACAGGUAGGUCGCUGAAGUACGA [JR_SSArginiB_Sub004] | 71.4 nM | 122 nM | 138 nM | 86.6 nM | 105 nM
